According to paper PMC9720572, “Macromolecular crowding amplifies allosteric regulation of T-cell protein tyrosine phosphatase” (The Journal of Biological Chemistry, 2022):

Target: the molecule itself
Assay: FRET or BRET; in vitro intermolecular FRET; equimolar mixture of the CFP-X-CFP and YFP-X-YFP fusions, total protein 10 nM, kinetic buffer (50 mM Tris-HCl pH 7.0, 125 mM NaCl, 0.01% Tween-20, 1 mM DTT) with 22.5% PEG 3350, 1 h at 30 °C; excitation 400 nm, ratio R of emission at 530 nm/485 nm

Protein | binding result
TC45^E/A (TC45 with 378KRKRPR383 mutated into 378EAAAPE383), fused at both termini to CFP (CFP-TC45^E/A-CFP) or to YFP (YFP-TC45^E/A-YFP), bacterially expressed (enzyme, UniProt P17706-2 1-387, looked up, The His6 tag and its thrombin cleavage are described in general for the pET28 constructs and the purification; also called C-EA-C; Y-EA-Y; not shown: His6, N-terminal, cleaved; CFP (one copy) or YFP (the other copy), N-terminal, kept; CFP (one copy) or YFP (the other copy), C-terminal, kept) MPTTIEREFEELDTQRRWQPLYLEIRNESHDYPHRVAKFPENRNRNRYRDVSPYDHSRVKLQNAENDYINASLVDIEEAQRSYILTQGPLPNTCCHFWLMVWQQKTKAVVMLNRIVEKESVKCAQYWPTDDQEMLFKETGFSVKLLSEDVKSYYTVHLLQLENINSGETRTISHFHYTTWPDFGVPESPASFLNFLFKVRESGSLNPDHGPAVIHCSAGIGRSGTFSLVDTCLVLMEKGDDINIKQVLLNMRKYRMGLIQTPDQLRFSYMAIIEGAKCIKGDSSIQKRWKELSKEDLSPAFDHSPNKIMTEKYNGNRIGLEEEKLTGDRCTGLSSKMQDTMEENSESALRKRIREDRKATTAQKVQQMKQRLNENEREAAAPELTDT | binds
T-cell protein tyrosine phosphatase, 45 kDa form (TC45), wild type, fused at both termini to CFP (CFP-TC45-CFP) or to YFP (YFP-TC45-YFP), bacterially expressed (enzyme, UniProt P17706-2 1-387, looked up, T-cell protein tyrosine phosphatase (TC-PTP, encoded by PTPN2), 45 kDa form TC45, full-length ORF; the printed residues 377RKRKRPR383 near the C terminus fit the 387-residue TC45 isoform; Self-association was tested with an equimolar mixture of two differently labelled copies: CFP-TC45-CFP and YFP-TC45-YFP; The His6 tag and its thrombin cleavage are described in general for the pET28 constructs …) MPTTIEREFEELDTQRRWQPLYLEIRNESHDYPHRVAKFPENRNRNRYRDVSPYDHSRVKLQNAENDYINASLVDIEEAQRSYILTQGPLPNTCCHFWLMVWQQKTKAVVMLNRIVEKESVKCAQYWPTDDQEMLFKETGFSVKLLSEDVKSYYTVHLLQLENINSGETRTISHFHYTTWPDFGVPESPASFLNFLFKVRESGSLNPDHGPAVIHCSAGIGRSGTFSLVDTCLVLMEKGDDINIKQVLLNMRKYRMGLIQTPDQLRFSYMAIIEGAKCIKGDSSIQKRWKELSKEDLSPAFDHSPNKIMTEKYNGNRIGLEEEKLTGDRCTGLSSKMQDTMEENSESALRKRIREDRKATTAQKVQQMKQRLNENERKRKRPRLTDT | binds
